Assay results taken from patent publication US20130064826A1 (KALOBIOS PHARMACEUTICALS, published 2013).

T1: CD97 (UniProt P48960 21-552, limits assumed)
T1 sequence (looked up): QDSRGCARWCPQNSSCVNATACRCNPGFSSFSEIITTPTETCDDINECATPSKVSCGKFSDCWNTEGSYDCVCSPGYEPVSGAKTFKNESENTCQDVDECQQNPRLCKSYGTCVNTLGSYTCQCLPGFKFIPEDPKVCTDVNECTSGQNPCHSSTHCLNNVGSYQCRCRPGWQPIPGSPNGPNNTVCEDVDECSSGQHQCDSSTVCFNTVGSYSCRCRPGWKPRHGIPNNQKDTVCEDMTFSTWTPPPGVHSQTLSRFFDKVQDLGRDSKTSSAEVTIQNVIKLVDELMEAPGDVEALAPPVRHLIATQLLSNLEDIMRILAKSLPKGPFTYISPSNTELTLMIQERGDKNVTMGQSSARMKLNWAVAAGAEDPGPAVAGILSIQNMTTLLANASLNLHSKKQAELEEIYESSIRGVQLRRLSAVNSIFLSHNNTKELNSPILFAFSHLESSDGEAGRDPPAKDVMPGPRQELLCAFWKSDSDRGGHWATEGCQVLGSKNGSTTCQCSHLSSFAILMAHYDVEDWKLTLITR

T2: EMR2 (UniProt Q9UHX3 24-540, limits assumed)
T2 sequence (looked up): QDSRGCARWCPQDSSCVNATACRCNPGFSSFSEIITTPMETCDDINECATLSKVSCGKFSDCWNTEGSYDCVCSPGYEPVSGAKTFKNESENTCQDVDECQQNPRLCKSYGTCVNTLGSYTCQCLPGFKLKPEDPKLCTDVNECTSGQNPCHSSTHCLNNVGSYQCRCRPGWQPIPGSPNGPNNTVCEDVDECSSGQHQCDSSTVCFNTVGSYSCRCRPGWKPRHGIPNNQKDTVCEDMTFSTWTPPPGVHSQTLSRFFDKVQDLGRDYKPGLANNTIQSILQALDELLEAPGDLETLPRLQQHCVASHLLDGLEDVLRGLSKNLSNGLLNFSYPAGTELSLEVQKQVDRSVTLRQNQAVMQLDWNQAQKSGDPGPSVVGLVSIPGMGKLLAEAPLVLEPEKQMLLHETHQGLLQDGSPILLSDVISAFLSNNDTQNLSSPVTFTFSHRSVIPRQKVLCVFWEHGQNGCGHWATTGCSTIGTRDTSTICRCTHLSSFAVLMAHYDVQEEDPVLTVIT

T3: EMR1 on human eosinophils (human, UniProt Q14246 21-886)
T3 construct: whole, on cells
T3 sequence (looked up): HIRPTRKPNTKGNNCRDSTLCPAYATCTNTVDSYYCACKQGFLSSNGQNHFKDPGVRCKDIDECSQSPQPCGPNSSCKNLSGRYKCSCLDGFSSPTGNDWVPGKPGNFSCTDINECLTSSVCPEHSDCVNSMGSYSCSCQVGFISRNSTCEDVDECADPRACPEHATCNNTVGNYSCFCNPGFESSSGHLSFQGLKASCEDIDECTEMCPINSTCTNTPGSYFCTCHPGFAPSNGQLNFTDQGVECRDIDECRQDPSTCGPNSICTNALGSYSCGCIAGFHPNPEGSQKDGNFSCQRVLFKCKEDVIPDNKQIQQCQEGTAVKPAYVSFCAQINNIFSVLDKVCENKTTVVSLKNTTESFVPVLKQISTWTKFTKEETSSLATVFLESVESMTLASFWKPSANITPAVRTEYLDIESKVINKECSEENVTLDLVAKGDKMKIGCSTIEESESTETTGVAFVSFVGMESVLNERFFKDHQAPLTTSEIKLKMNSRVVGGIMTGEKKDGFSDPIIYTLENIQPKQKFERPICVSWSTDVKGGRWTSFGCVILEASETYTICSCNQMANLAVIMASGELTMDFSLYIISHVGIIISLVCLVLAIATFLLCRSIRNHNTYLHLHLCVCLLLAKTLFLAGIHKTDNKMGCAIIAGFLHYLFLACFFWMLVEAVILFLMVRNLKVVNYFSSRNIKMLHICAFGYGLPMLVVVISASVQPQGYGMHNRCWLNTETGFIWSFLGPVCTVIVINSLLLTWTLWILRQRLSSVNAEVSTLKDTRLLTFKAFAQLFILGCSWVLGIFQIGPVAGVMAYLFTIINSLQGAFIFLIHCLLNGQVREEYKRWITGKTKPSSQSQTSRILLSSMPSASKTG

T4: Peptide 1
T4 construct: also called 27 mer; EMR1 ELD-6 271-297
T4 peptide: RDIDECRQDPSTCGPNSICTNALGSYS

T5: Peptide 4
T5 construct: also called 20 mer; EMR1 ELD-6 271-290
T5 peptide: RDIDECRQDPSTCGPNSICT

T6: Peptide 7
T6 construct: also called 18 mer; EMR1 ELD-6 271-288
T6 peptide: RDIDECRQDPSTCGPNSI

B1: monoclonal antibody 19-1E7 (antibody, V domains shown)
VH: QVQLKESGPGLVAPSQSLSITCTVSGFSLTNFGIHWVRQPPGKGLEWLGVIWSGGGTNYNSALMSRLSISKDNSKSQVFLKMNSLQTDDTAIYYCVSIYYRGFDSWGQGTTLTVSS
VL: DVFMTQAPLSLPVSLGDQASISCRSSQSIVHSNGNTYLEWYLQKPGQSPKLLIYRVSNRFSGVPDRFSGSGSGTDFTLKISRVEAEDLGVYYCFQGSHVPLTFGAGTRLELK
notes: Murine hybridoma antibody raised against human EMR1-Fc; Hybridoma supernatant was used in the screening
B2: chimeric 19-1E7 IgG1k antibody (c1E7) (antibody, V domains shown)
VH: B1 VH
VL: B1 VL
notes: 19-1E7 variable regions combined with human gamma-1 Fc and kappa constant regions (IgG1 kappa); Made in fucosylated (CHOK1 SV) and non-fucosylated (MS704-PF) forms; also called chimeric 1E7

Tests used:
CD97 = target: T1, CD97; test: not described
EMR2 = target: T2, EMR2; test: not described
[1] = target: T3, EMR1 on human eosinophils; test: flow cytometry on human eosinophils
Protocol: Splenic B cells from mice immunized with purified human EMR1-Fc fusion protein were fused with SP2/0-Ag14 cells to generate hybridoma cell lines. Supernatants containing antibody from monoclonal lines were tested for binding to recombinant human EMR1 by ELISA. Antibodies that bound EMR1 were tested for binding to human eosinophils by flow cytometry. Polymorphonuclear-cell rich fractions from buffy coat blood were obtained by Ficoll gradient centrifugation and residual red blood cells were lysed with ammonium chloride (ACK lysis buffer). Eosinophils were isolated by negative selection using a MACS eosinophil isolation kit (Miltenyi) and incubated with 10 μg/ml rat IgG and 2% BSA to block nonspecific IgG binding before addition of anti-EMR1 antibody or isotype control antibody. Anti-mouse FITC antibody was used for detection of bound antibodies on a FACSCalibur flow cytometer.

Peptide 1 = target: T4, Peptide 1; test: biolayer interferometry (ForteBio Octet)
Peptide 4 = target: T5, Peptide 4; test: biolayer interferometry (ForteBio Octet)
Peptide 7 = target: T6, Peptide 7; test: biolayer interferometry (ForteBio Octet)

Binder	binding result (CD97)	binding result (EMR2)	binding result [1]	binding result (Peptide 1)	binding result (Peptide 4)	binding result (Peptide 7)
B1	no binding	no binding	binds	–	–	–
B2	–	–	–	binds	binds	binds
